Test results taken from the supplement of paper PMC7125110.
± gives the standard error. This sample holds only a part of the variants without activity.

B1: glmS ribozyme (parent)
chain: AUAAAAGCGCCAGAACUACAGAAAUGUAGUUGACGAGGAGGAGGUUUAUCGAAUUUUCGGCGGAUGCCUCCAAA

Experiments:
Conditions in all cases: with glucosamine-6-phosphate
glucosamine-6-phosphate [1] = variants of: B1; assay: self-cleavage kobs at 40 uM GlcN6P; higher = faster cleavage; RNA array
Procedure, shortened: (§1)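 Over ~14 h at 37 °C, tiles were imaged as glucosamine-6-phosphate (40 μM to 10 mM) in HEPES/KCl/Mg(OAc)2 buffer flowed across sequenced MiSeq chips. The chips carried barcoded ribozyme variants transcribed in situ by E. coli RNA polymerase and tracked with a hybridised Cy3 probe. After normalisation to baseline and to non-cleaving reference variants, one- or two-exponential decay fits of per-tile medians gave kobs. kcat and KM followed from weighted Michaelis–Menten fits across concentrations.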

glucosamine-6-phosphate [2] = variants of: B1; assay: self-cleavage kobs at 640 uM GlcN6P; higher = faster cleavage; RNA array
Procedure, shortened: as §1

glucosamine-6-phosphate [3] = variants of: B1; assay: self-cleavage kobs at 10000 uM GlcN6P; higher = faster cleavage; RNA array
Procedure, shortened: as §1

glucosamine-6-phosphate [4] = variants of: B1; assay: self-cleavage kobs at 2500 uM GlcN6P; higher = faster cleavage; RNA array
Procedure, shortened: as §1

glucosamine-6-phosphate [5] = variants of: B1; assay: self-cleavage kobs at 160 uM GlcN6P; higher = faster cleavage; RNA array
Procedure, shortened: as §1

Variant | self-cleavage kobs at 40 uM GlcN6P (glucosamine-6-phosphate [1]) [s⁻¹] | self-cleavage kobs at 640 uM GlcN6P (glucosamine-6-phosphate [2]) [s⁻¹] | self-cleavage kobs at 10000 uM GlcN6P (glucosamine-6-phosphate [3]) [s⁻¹] | self-cleavage kobs at 2500 uM GlcN6P (glucosamine-6-phosphate [4]) [s⁻¹] | self-cleavage kobs at 160 uM GlcN6P (glucosamine-6-phosphate [5]) [s⁻¹]
AUAAAAGCGCCAGAACUACAGAAAUGUAUUUGACGAGGAGGAGGUUUAUCCAAUUUUCGGCGGAUGCCUCCAAA [G29U G51C] | < 1e-05 | < 1e-05 | < 1e-05 | – | –
AUAAAAGCGCCAGAACUACAGAAAUGUACCUGCCGAGGAGGGGGUUUAUCGAAUAAUCGGCGGAUGCCUCCAAA [G29C U30C A33C A42G U55A U56A] | < 1e-05 | – | < 1e-05 | – | –
AUAAAAGCGCCAGAACUACAGAAAUGUACUUGACGAGGAGGAGGUUUAUCGAAUUUUCGGCGGAUGCAUCCAAA [G29C C68A] | < 1e-05 | – | – | – | –
AUAAAAGCGCCAGAACUACAGAAAUGUAUGUGAUGAGGAGGAGGUUUAUCGAAUUUUCGGCGGAUGCCUCCAAA [G29U U30G C34U] | < 1e-05 | – | < 1e-05 | – | –
AUAAAAGCGCCAGAACUACAGAAAUGUACUCGACGAAGAGGAGGUUUAUCGAAUUUUCGGCGGAUGACUCCAAA [G29C U31C G37A C67A] | < 1e-05 | – | < 1e-05 | < 1e-05 | –
AUAAAAGCGCCAGAACUACAGAAAUGUACUUGACUAGGAGGAGGUUUAUCGAAUUUUUGGCGGAUGCCUCCAAA [G29C G35U C58U] | < 1e-05 | – | – | – | –
AUAAAAGCGCCAGAACUACAGAAAUGUAUUUGACGAGGAAGAGGAUUAUCGAAUUUUCGGCGGAUGCCUCCAAA [G29U G40A U45A] | 5.2e-05 ± 1.6e-05 | 0.00011 ± 2.8e-05 | 0.000439 ± 0.00011 | 0.000444 ± 8.6e-05 | –
AUAAAAGCGCCAGAACUACAGAAAUGUACUAGACGAGGAGGAGGUAUAUCGACUUUUCGGCGGAUGCCUCUAAA [G29C U31A U46A A53C C71U] | < 1e-05 | – | – | – | –
AUAAAAGCGCCAGAACUACAGAAAUGUAUUUGACGAGGAGGAGGUUUAUGGAAUUUUCGUCGGAUGACUCCAAA [G29U C50G G60U C67A] | 9.35e-05 ± 1.9e-05 | – | 0.000133 ± 3e-05 | – | –
AUAAAAGCGCCAGAACUACAGAAAUGUAUUUGAAGAGGAGGAGGUUUAUCGAAUUUUCGGUGGAUGCCUCCAAA [G29U C34A C61U] | < 1e-05 | < 1e-05 | – | – | –
AUAAAAGCGCCAGAACUACAGAAAUGUAUGUGACGAGGAGGAGGUUUAUCGAAAUUUCGGCGGAUGCCUCCAAA [G29U U30G U54A] | 9.91e-05 ± 2.6e-05 | – | 0.00383 ± 0.00068 | – | –
AUAAAAGCGCCAGAACUACAGAAAUGUAGAUGACGAGGUGGAGGUUUAUCAAAUUUUCGGCGGGUGCCUCCAAA [U30A A39U G51A A64G] | < 1e-05 | – | < 1e-05 | – | –
AUAAAAGCGCCAGAACUACAGAAAUGUACUUGACGAGGAGGAGGCUUAUCGAAUUUUCGGCAGAUGCCUCCAAA [G29C U45C G62A] | < 1e-05 | – | – | < 1e-05 | –
AUAAAAGCGCCAGAACUACAGAAAUGUAUUCGACGAGGAGGAGGUUUCUCGAAUUUUCGGCGGAUGCCUCCAAA [G29U U31C A48C] | < 1e-05 | – | < 1e-05 | – | –
AUAAAAGCGCCAGAACUACAGAAAUGUAUUUGACUGGGAGGAGGUUUAUCGAAUUUUCGGCGGAUGCCUCCAAA [G29U G35U A36G] | < 1e-05 | – | – | – | –
AUAAAAGCGCCAGAACUACAGAAAUGUACUUGACGAGGAGGAGGUUUAUCGAAUUUUCGGCGGAUGCCUUCAAA [G29C C70U] | 8.66e-05 ± 9.8e-06 | 0.000243 ± 2.2e-05 | 0.000815 ± 0.00013 | 0.00103 ± 0.00018 | 0.000143 ± 1.8e-05
AUAAAAGCGCCAGAACUACAGAAAUGUAUUUGACGAGGAGGUGGUUUAUCGAAUUUUCGGCGGAUGCCUCCAAA [G29U A42U] | < 1e-05 | < 1e-05 | 2.15e-05 ± 1.1e-05 | – | –

Variant | self-cleavage kobs at 40 uM GlcN6P (glucosamine-6-phosphate [1]) [s⁻¹] | self-cleavage kobs at 640 uM GlcN6P (glucosamine-6-phosphate [2]) [s⁻¹] | self-cleavage kobs at 10000 uM GlcN6P (glucosamine-6-phosphate [3]) [s⁻¹] | self-cleavage kobs at 2500 uM GlcN6P (glucosamine-6-phosphate [4]) [s⁻¹] | self-cleavage kobs at 160 uM GlcN6P (glucosamine-6-phosphate [5]) [s⁻¹]
AUAAAAGCGCCAGAACUACAGAAAUGUAUUUGACGAGGAGGAGGUUUAUCGAAUUUUCGGCGUAUGCCUCCAAA [G29U G63U] | < 1e-05 | < 1e-05 | < 1e-05 | – | < 1e-05
AUAAAAGCGCCAGAACUACAGAAAUGUACCUGACGAGCAGGAGAUUUCUCGAAUGUUCGGCGGAUGCCUCCAAA [G29C U30C G38C G44A A48C U55G] | < 1e-05 | – | < 1e-05 | < 1e-05 | –
AUAAAAGCGCCAGAACUACAGAAAUGUACUUGACGAGGAGGAGGUUUAUCUAAUGUUCGGCGGAUGCCUCCAAA [G29C G51U U55G] | < 1e-05 | – | < 1e-05 | – | –
AUAAAAGCGCCAGAACUACAGAAAUGUAUUUGACGAGGAGAAGGUUUAUCGAAUUUUCGGCGGAUGCCUCGAAA [G29U G41A C71G] | < 1e-05 | – | – | – | –
AUAAAAGCGCCAGAACUACAGAAAUGUAUUUGACGAGGAGGGGGUUUAUCGAAUUCUCGGCGAAUGCCUCCAAA [G29U A42G U56C G63A] | < 1e-05 | – | < 1e-05 | – | –
AUAAAAGCGCCAGAACUACAGAAAUGUACUUGACGAGGAGGAGGUUUAUCGAAUUUUCGGCGGAGGUCUCCAAA [G29C U65G C67U] | < 1e-05 | – | 0.000105 ± 3e-05 | – | –
AUAAAAGCGCCAGAACUACAGAAAUGUACUUGACGAGGAGGAGGUUUAUCGAAGUUUCGACGGAUGCCUCCAAA [G29C U54G G60A] | < 1e-05 | – | < 1e-05 | – | –
AUAAAAGCGCCAGAACUACAGAAAUGUAUUUGACGAGGAGGAGGUGUAUCGAAUUUUGGGCGGAUGACUCCAAA [G29U U46G C58G C67A] | 4.15e-05 ± 1.9e-05 | – | 5.63e-05 ± 1.4e-05 | – | –
AUAAAAGCGCCAGAACUACAGAAAUGUAUUUGACGGGGAGGAGGUUUCUCGAAUUUUCGGCGGAUGCCUCGAAA [G29U A36G A48C C71G] | < 1e-05 | – | – | – | –
AUAAAAGCGCCAGAACUACAGAAAUGUAUUUGAUGAGGAGGCGGUUUAUCGAAUUUUCGGCGGAUGCCUCCAAA [G29U C34U A42C] | < 1e-05 | < 1e-05 | < 1e-05 | < 1e-05 | < 1e-05
AUAAAAGCGCCAGAACUACAGAAAUGUAUUUGACGCGAAAGAGGUUUAUCGAAUUUUCGGCGGAUGCCUCCAAA [G29U A36C G38A G40A] | < 1e-05 | – | < 1e-05 | < 1e-05 | –
AUAAAAGCGCCAGAACUACAGAAAUGUAUUUGACGAGGGGGAGGUUUAUCGAAUUUUCGGCGGUUGCCUCCAAA [G29U A39G A64U] | < 1e-05 | – | – | – | –
AUAAAAGCGCCAGAACUACAGAAAUGUACUUGACGAGGAGGAGGUUUAUCGAAUUUUCGGUGGAUGCCUCCAAA [G29C C61U] | < 1e-05 | – | – | – | –
AUAAAAGCGCCAGAACUACAGAAAUGUAUUAGACGAGGAGGUGGUUUAUCGAAUUUUCGGCGGAUGCCUCCAAA [G29U U31A A42U] | < 1e-05 | – | – | – | –
AUAAAAGCGCCAGAACUACAGAAAUGUAUUUGACGAGGAGGAGGUUUAUGGAGUGUUCGGCGGAUGGCUCCAAA [G29U C50G A53G U55G C67G] | 0.000349 ± 0.00015 | – | – | – | –
AUAAAAGCGCCAGAACUACAGAAAUGUAUUUGACGAGGAGGAGGUGUAUUGAAUUUUCGUCGGAUUCCUCCAAA [G29U U46G C50U G60U G66U] | < 1e-05 | – | – | – | –
AUAAAAGCGCCAGAACUACAGAAAUGUAUUUGAAGAGGAGGAGGUUUAUCGAAUUUUCGGCGGAUGCCUCCAAA [G29U C34A] | < 1e-05 | – | < 1e-05 | < 1e-05 | < 1e-05
